The results in this text go back to patent US20240148883A1, “Branched Linkers for Antibody-Drug Conjugates and Methods of Use Thereof” (priority 2021, published 2024).

Like-named read-outs stand apart in the source and are kept apart here.

Data set [1] can be described thus: Aggregation of conjugates by analytical size exclusion chromatography (SEC): % monomeric / % HMW. It is filed as physicochemical. How it is done: (§1) Methods: Antibodies (15 mg/mL) bearing one or two aldehyde tags (single or double-tagged constructs) were conjugated to linker-payloads at 1.1 or 1.7 mM, respectively. Reactions proceeded for 72 h at 37° C. in 20 mM sodium citrate, 50 mM NaCl pH 5.5 (20/50 buffer) containing 0.85-2.5% DMA. […] After conjugation, free drug was removed using a 30 kD MWCO 0.5 mL Amicon spin concentrator. Samples were added to the spin concentrator, centrifuged at 15,000×g for 7 min, then diluted with 450 μL 20 mM sodium citrate, 50 mM NaCl pH 5.5 and centrifuged again. The process was repeated 10 times. To determine the DAR of the final product, ADCs were examined by analytical chromatography using HIC (Tosoh #14947) or PLRP-RP (Agilent PL1912-1802 1000 A, 8 um, 50×2.1 mm) columns. HIC analysis used mobile phase A: 1.5 M ammonium sulfate, 25 mM sodium phosphate pH 7.0, and mobile phase B: 25% isopropanol, 18.75 mM sodium phosphate pH 7.0. PLRP analysis used mobile phase A: 0.1% trifluoroacetic acid in water, and mobile phase B: 0.1% trifluoroacetic acid in acetonitrile. Prior to PLRP analysis, sample was denatured with the addition of 50 mM DTT, 4 M guanidine HCl (final concentrations) and heating at 37° C. for 30 min. To determine aggregation, samples were analyzed using analytical size exclusion chromatography (SEC; Tosoh #08541) with a mobile phase of 300 mM NaCl, 25 mM sodium phosphate pH 6.8 with 5% isopropanol.

The format of data set [2] is physicochemical. How it is done:
as §1

Where [3] appears, read: conjugated to antibody against Target 1.
[4] abbreviates: conjugated to antibody against Target 2.
[5] abbreviates: conjugated to antibody against Target 3.
The mark [6] stands for this setting: conjugated to antibody against Target 4.
Where [7] appears, read: conjugated to antibody against Target 5.
Where [8] appears, read: conjugated to antibody against Target 7.
The mark [9] stands for this setting: conjugated to antibody against Target 8.
[10] abbreviates: conjugated to antibody against Target 9.
Where [11] appears, read: conjugated to antibody against Target 10.

As to `CC[C@@]1(O)C(=O)OCc2c1cc1n(c2=O)Cc2c-1nc1ccccc1c2CCN(C(=O)OCc1ccc(NC(=O)[C@H](C)NC(=O)[C@@H](NC(=O)CCC(=O)Nc2ccc3c(c2)cc(CN(C)NC)n3CCC(=O)N[C@H](C(=O)N[C@@H](C)C(=O)Nc2ccc(COC(=O)N(CCc3c4c(nc5ccccc35)-c3cc5c(c(=O)n3C4)COC(=O)[C@]5(O)CC)C(C)C)cc2O[C@@H]2O[C@H](C(=O)O)[C@@H](O)[C@H](O)[C@H]2O)C(C)C)C(C)C)c(O[C@@H]2O[C@H](C(=O)O)[C@@H](O)[C@H](O)[C@H]2O)c1)C(C)C` [Compound 18], the “% HMW (high-molecular weight species)” value in data set [1] (setting [3]) stood at 1.8%; in data set [1] (setting [4]), 6.5%; in data set [1] (setting [5]), 4.3%; in data set [1] (setting [6]), 0.6%; in data set [1] (setting [7]), 0.8%; in data set [1] (conjugated to antibody against Target 6), 2.0%. Further, the “% HMW (high-molecular weight species)” value stood at 1.6% in data set [1] (setting [8]), 3.4% in data set [1] (setting [9]), 1.5% in data set [1] (setting [10]) and 2.7% in data set [1] (setting [11]). Moreover, the DAR came to 6.82 in data set [2] (setting [3]); 6.16 in data set [2] (setting [4]); 4.31 in data set [2] (setting [5]); 6.97 in data set [2] (setting [6]); 5.45 in data set [2] (setting [7]); 6.88 in data set [2] (setting [8]). The DAR was found to be 6.1 in data set [2] (setting [9]), 6.84 in data set [2] (setting [10]) and 5.49 in data set [2] (setting [11]).

As for `CC[C@@]1(O)C(=O)OCc2c1cc1n(c2=O)Cc2c-1nc1ccccc1c2CCN(C(=O)OCc1ccc(NC(=O)[C@H](C)NC(=O)[C@@H](NC(=O)CCOCCOCCOCCOCCNC(=O)CCC(=O)Nc2ccc3c(c2)cc(CN(C)NC)n3CCC(=O)NCCOCCOCCOCCOCCC(=O)N[C@H](C(=O)N[C@@H](C)C(=O)Nc2ccc(COC(=O)N(CCc3c4c(nc5ccccc35)-c3cc5c(c(=O)n3C4)COC(=O)[C@]5(O)CC)C(C)C)cc2O[C@@H]2O[C@H](C(=O)O)[C@@H](O)[C@H](O)[C@H]2O)C(C)C)C(C)C)c(O[C@@H]2O[C@H](C(=O)O)[C@@H](O)[C@H](O)[C@H]2O)c1)C(C)C` [Compound 36], the “% HMW (high-molecular weight species)” value was found to be 4.1% in data set [1] (setting [4]); 6.1% in data set [1] (setting [5]); 3.3% in data set [1] (setting [7]); 3.5% in data set [1] (setting [9]); 2.2% in data set [1] (setting [10]); 6.2% in data set [1] (setting [11]). Besides, the DAR amounted to 6.78 in data set [2] (setting [4]); 6.33 in data set [2] (setting [5]); 6.88 in data set [2] (setting [7]); 6.55 in data set [2] (setting [9]); 6.32 in data set [2] (setting [10]); 6.33 in data set [2] (setting [11]).
